How the values were obtained:
[1] = target: full-length spike B.1.617.2 (SARS-CoV-2, UniProt P0DTC2 13-1273); assay: cell-based or functional assay
[2] = target: spike of variant B.1.1.345 on pseudotyped lentiviral particles; assay: cell-based or functional assay

B1: A19-46.1 (antibody, V domains shown)
VH: QVQLVESGGGVVQPGRSLRLSCAASGFTLSSYGMHWVRQAPGKGLEWVAVISYDGSNKYYVDSVKGRFTISRDNSKNTLYLQMNSLRAEDTAVYYCARGWAYWELLPDYYYGMDVWGQGTTVTVSS
VL: QTVVTQEPSFSVSPGGTVTLTCGLSSGSVSTAYFPSWYQQTPGQAPRTLIYGTNTRSSGVPDRFSGSILGNKAALTITGAQADDESDYYCVLYMGRGIVVFGGGTKLTVL
neutralization IC50 [1]: > 10 µg/mL
pseudotyped virus neutralization IC50 [2]: 0.095 µg/mL
